Laboratory results: patent US20230287120A1 (ALLOGENE THERAPEUTICS, published 2023)

T1: Flag tagged recombinant DLL3 (Adipogen) (Homo sapiens (Human), UniProt Q9NYJ7 27-492)
T1 construct: Bought reagent; also called Flag-DLL3
T1 sequence: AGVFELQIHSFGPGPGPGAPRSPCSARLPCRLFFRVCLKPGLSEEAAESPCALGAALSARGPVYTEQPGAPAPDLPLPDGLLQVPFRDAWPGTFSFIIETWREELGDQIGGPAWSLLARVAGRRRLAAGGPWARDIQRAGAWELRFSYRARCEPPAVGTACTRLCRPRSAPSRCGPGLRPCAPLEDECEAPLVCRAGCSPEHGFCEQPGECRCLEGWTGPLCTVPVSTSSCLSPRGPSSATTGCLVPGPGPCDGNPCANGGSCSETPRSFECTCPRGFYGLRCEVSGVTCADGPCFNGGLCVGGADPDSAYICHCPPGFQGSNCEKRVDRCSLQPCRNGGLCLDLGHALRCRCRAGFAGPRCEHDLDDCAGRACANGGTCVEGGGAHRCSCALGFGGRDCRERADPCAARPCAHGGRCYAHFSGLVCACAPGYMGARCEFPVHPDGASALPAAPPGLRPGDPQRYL


Tests used:
[1] = target: T1, Flag tagged recombinant DLL3 (Adipogen); experiment: flow cytometry, percent of T cells that recognise recombinant DLL3, Donor 503
Protocol: (§1) To determine the percentage of T cells that were successfully transduced with DLL3 CAR, T cells were first incubated with 1 ug/ml Flag tagged recombinant DLL3 (Adipogen) in PBS+1% BSA for 20 minutes at 4 C.

[2] = target: T1, Flag tagged recombinant DLL3 (Adipogen); experiment: flow cytometry, primary T cells with the CAR, 1 ug/ml Flag tagged recombinant DLL3, PE anti-Flag
Protocol: as §1

[3] = target: T1, Flag tagged recombinant DLL3 (Adipogen); experiment: flow cytometry, percent of T cells that recognise recombinant DLL3, Donor 772
Protocol: as §1

Binder | Transduction efficiency [1] | Rec-DLL3 gate, percent of live CD3+ cells [2] | Transduction efficiency [3]
4H8 (other, also called anti-DLL3 CAR with 4H8 scFv, on primary T cells) CAR: QVQLQQSGPGLVKPSQTLSLTCAISGDSVSSNSATWNWIRQSPSRGLEWLGRTYYRSKWYDDYAVSVKSRITINPDTSKNHLSLHLNSVTPEDTAVYYCAGGGLVGAPDGFDVWGQGTMVTVSSGGGGSGGGGSGGGGSGGGGSQSVLTQPPSASGTPGQRVTISCSGSSSNIGSDPVNWYQQLPGTAPKLLIYSNNQRPSGVPDRFSGSKSGTSASLAISGLQSEDEADYYCSAWDDSLNGYVFGTGTKVTVLTTTPAPRPPTPAPTIASQPLSLRPEACRPAAGGAVHTRGLDFACDIYIWAPLAGTCGVLLLSLVITKRGRKKLLYIFKQPFMRPVQTTQEEDGCSCRFPEEEEGGCELRVKFSRSADAPAYQQGQNQLYNELNLGRREEYDVLDKRRGRDPEMGGKPRRKNPQEGLYNELQKDKMAEAYSEIGMKGERRRGKGHDGLYQGLSTATKDTYDALHMQALPPR | 39.3% | 77.9% | 27.2%
9H12-K (other, also called anti-DLL3 CAR with 9H12-K scFv, on primary T cells) CAR: QVQLVQSGAEVKKPGASVKVSCKASGYTFTGYSIHWVRQAPGQGLEWMGWINPNSGGTFYAQKFQGRVTMTRDTSISTVYMELSRLRSDDTAVYYCARDGWGDYYYYGLDVWGQGTTVTVSLGGGGSGGGGSGGGGSGGGGSDIQMTQSPSSVSASVGDRVTITCRASQDISSWLAWYQQKPGKAPKLLIYTASSLQGGVPSRFSGSGSGTDFTLTISSLQPEDLATYSCQQANVFPYTFGQGTKLEIKTTTPAPRPPTPAPTIASQPLSLRPEACRPAAGGAVHTRGLDFACDIYIWAPLAGTCGVLLLSLVITKRGRKKLLYIFKQPFMRPVQTTQEEDGCSCRFPEEEEGGCELRVKFSRSADAPAYQQGQNQLYNELNLGRREEYDVLDKRRGRDPEMGGKPRRKNPQEGLYNELQKDKMAEAYSEIGMKGERRRGKGHDGLYQGLSTATKDTYDALHMQALPPR | 41.4% | 56.3% | 35.6%
10G1-K (other, also called anti-DLL3 CAR with 10G1-K scFv, on primary T cells) CAR: EVQLLESGGGLVQPGGSLRLSCAASGFTFSSYAMNWVRQAPGKGLEWVSTISGSGGSTYYADSVKGRFTISRDNSKNTLYLQMNSLRAEDTAVFYCAIDPEYYDILTGGDYWGQGTLVTVSSGGGGSGGGGSGGGGGSGGGGSDIQMTQSPSAMSASVGDRVTITCRASQGISNYLAWFQQKPGKVPKRLIYAASSLQSGVPSRFSGSGSGTEFTLTISSLQPEDFATYFCLQHDSFPLTFGGGTKVEIKTTTPAPRPPTPAPTIASQPLSLRPEACRPAAGGAVHTRGLDFACDIYIWAPLAGTCGVLLLSLVITKRGRKKLLYIFKQPFMRPVQTTQEEDGCSCRFPEEEEGGCELRVKFSRSADAPAYQQGQNQLYNELNLGRREEYDVLDKRRGRDPEMGGKPRRKNPQEGLYNELQKDKMAEAYSEIGMKGERRRGKGHDGLYQGLSTATKDTYDALHMQALPPR | 53.7% | 51.8% | 33.7%
11A3 (other, also called anti-DLL3 CAR with 11A3 scFv, on primary T cells) CAR: QVQLQESGPGLVKPSETLSLTCTVSSDSISNYYWSWIRQPPGKGLEWISYIYYSGITNYNPSLKSRVTISVDTSKNQFSLKLSSVTAADTAVYYCARITVTGFYFDYWGQGTLVTVSSGGGGSGGGGSGGGGSGGGGSEIVLTQSPGTLSLSPGERATLSCRASQSISRSYLAWYQQKPGQAPRHLIYGASSRATGIPDRFSGSGSGTDFILTISRLEPEDFAVYYCQQYDTSPLTFGGGTKVEIKTTTPAPRPPTPAPTIASQPLSLRPEACRPAAGGAVHTRGLDFACDIYIWAPLAGTCGVLLLSLVITKRGRKKLLYIFKQPFMRPVQTTQEEDGCSCRFPEEEEGGCELRVKFSRSADAPAYQQGQNQLYNELNLGRREEYDVLDKRRGRDPEMGGKPRRKNPQEGLYNELQKDKMAEAYSEIGMKGERRRGKGHDGLYQGLSTATKDTYDALHMQALPPR | 42.1% | 57.3% | 20%
